Paper PMC9727157, “The transmembrane domains mediate oligomerization of the human ZIP4 transporter in vivo” (Scientific Reports, 2022)

B1: truncated human ZIP4 (without ECD) tagged with eGFP (truncated hZIP4/eGFP) (domain or fragment, UniProt Q6P5W5 328-647, looked up)
chain: LYGSLATLLICLCAVFGLLLLTCTGCRGVTHYILQTFLSLAVGAVTGDAVLHLTPKVLGLHTHSEEGLSPQPTWRLLAMLAGLYAFFLFENLFNLLLPRDPEDLEDGPCGHSSHSHGGHSHGVSLQLAPSELRQPKPPHEGSRADLVAEESPELLNPEPRRLSPELRLLPYMITLGDAVHNFADGLAVGAAFASSWKTGLATSLAVFCHELPHELGDFAALLHAGLSVRQALLLNLASALTAFAGLYVALAVGVSEESEAWILAVATGLFLYVALCDMLPAMLKVRDPRPWLLFLLHNVGLLGGWTVLLLLSLYEDDITF
notes: human ZIP4 zinc transporter without the N-terminal extracellular domain (residues 1-327 removed); the eight transmembrane domains, residues 328-647; also called eGFP-tagged truncated ZIP4; hZIP4 lacking the ECD; source: HEK293 cells (HEK293T, ATCC CRL-3216), transiently transfected with 50 ng pcDNA3.1 plasmid, measured in living cells; not shown: eGFP (monomeric, A206K), C-terminal, kept
B2: full-length human ZIP4 tagged with eGFP (hZIP4/eGFP) (natural protein, UniProt Q6P5W5 23-647, looked up)
chain: SPPAGLLSLLTSGQGALDQEALGGLLNTLADRVHCANGPCGKCLSVEDALGLGEPEGSGLPPGPVLEARYVARLSAAAVLYLSNPEGTCEDARAGLWASHADHLLALLESPKALTPGLSWLLQRMQARAAGQTPKMACVDIPQLLEEAVGAGAPGSAGGVLAALLDHVRSGSCFHALPSPQYFVDFVFQQHSSEVPMTLAELSALMQRLGVGREAHSDHSHRHRGASSRDPVPLISSSNSSSVWDTVCLSARDVMAAYGLSEQAGVTPEAWAQLSPALLQQQLSGACTSQSRPPVQDQLSQSERYLYGSLATLLICLCAVFGLLLLTCTGCRGVTHYILQTFLSLAVGAVTGDAVLHLTPKVLGLHTHSEEGLSPQPTWRLLAMLAGLYAFFLFENLFNLLLPRDPEDLEDGPCGHSSHSHGGHSHGVSLQLAPSELRQPKPPHEGSRADLVAEESPELLNPEPRRLSPELRLLPYMITLGDAVHNFADGLAVGAAFASSWKTGLATSLAVFCHELPHELGDFAALLHAGLSVRQALLLNLASALTAFAGLYVALAVGVSEESEAWILAVATGLFLYVALCDMLPAMLKVRDPRPWLLFLLHNVGLLGGWTVLLLLSLYEDDITF
notes: human ZIP4 zinc transporter, full-length gene, residues 1-647; also called full-length hZIP4/eGFP; full-hZIP4/eGFP; source: HEK293 cells (HEK293T, ATCC CRL-3216), transiently transfected with 50 ng pcDNA3.1 plasmid, measured in living cells; not shown: eGFP (monomeric, A206K), C-terminal, kept

Target: the molecule itself
Test: fluorescence correlation spectroscopy (FCS) with molecular brightness analysis; living transfected HEK293 cells, upper plasma membrane centred in the confocal volume; 23 °C, HEPES-buffered MEM without phenol red; 100 s (10 x 10 s); brightness compared with CD-86/eGFP (monomer) and CD-86/eGFP/eGFP (tandem, dimer) controls

| Protein | stoichiometry N |
| --- | --- |
| B1 | 2 |
| B2 | 2 |
